Paper PMC9674588, “Molecular recognition of a membrane-anchored HIV-1 pan-neutralizing epitope” (Communications Biology, 2022)
“Also recorded” adds a separate entry of the source. Where no end group is shown, it is not given here.

Key:
Fab 10E8 [1] = assay: Binding of KK114-Fab 10E8 to single GUVs containing the peptides reconstituted (confocal microscopy); details: for Fab 10E8 binding vs TMD length and bilayer thickness (in words): GUVs of diC14:1PC, POPC, diC22:1PC
Method: To that end, we quantified antibody binding to single vesicles by confocal microscopy of Giant Unilamellar Vesicles (GUVs) incubated with fluorescently labeled Fab 10E8[36],[47].
Thus, to establish the influence of the bilayer thickness on the accessibility to the 10E8 epitope, we selected lipid bilayers made of diC14:1PC and diC22:1PC, which are respectively thinner and thicker than those made of POPC (C16:0-C18:1PC)[52],[53].
To prepare lipid bilayers containing reconstituted peptide, lipids and MPER-TMD-derived peptides were mixed in organic solvent prior to the production of the liposomes. Briefly, POPC dissolved in chloroform:methanol 1:2 (vol:vol) was mixed with peptide dissolved in HFIP at the desired peptide-to-lipid molar ratio. The mixture was dried under a N2 stream and traces of organic solvents were removed by 1 h vacuum pumping. Subsequently, the dried lipid films were subjected to 2 h of gentle hydration with H2O using a N2 gas bubbler to facilitate further dispersion of the dried lipid-peptide film in PBS aqueous buffer. Next, the multilamellar vesicles were bath sonicated (1 h, 55 °C) and subjected to 15 freeze and thaw cycles to obtain unilamellar vesicles.
For binding experiments, NBD-labeled GUVs were produced following the electro-formation method as previously described[47]. In brief, a total of 2 mM of lipid was dissolved in 200 μL CHCl3:CH3OH with the fluorescent probe NBD-PE (0.5%). When required, peptide dissolved in 10% (v/v) HFIP was included in the organic phase at 1:250 peptide-to-lipid molar ratio. The GUVs were added to a bovine serum albumin (BSA)-blocked microscope chamber that already included 250 nM of 10E8-based Fabs conjugated with the KK114 probe at residue C216HC, and were incubated for 15 min prior to imaging. […] Confocal microscopy images were acquired on an inverted confocal fluorescence microscope (Nikon Eclipse TE-2000, Nikon, Nikon Instruments, Tokyo, Japan). NBD-stained GUVs and Fabs conjugated with the KK114 probe were excited at 476 nm and 637 nm, respectively. […] The band pass filters used were 515/30 and Long Pass 650 nm. […]

[2] = Infrared spectroscopy (amide I) of peptides reconstituted in lipid bilayers; format: physicochemical; details: for IR amide-I band area, 1630 cm^−1 (solvated helices) / IR amide-I band area, 1642 cm^−1 (helix-helix interactions/disordered) / IR amide-I band area, 1655 cm^−1 (α-helix) / IR amide-I band area, 1670 cm^−1 (turns): monounsaturated PC, D2O PBS
Description: In addition, the lipid bilayer distance covered by the hydrocarbon acyl chains strongly conditions the favorable interactions between TMDs and lipids, so that a mismatch between this distance and the TMD length can give rise to alterations in the structure and function of the integral membrane proteins. Therefore, to rule out DC effects on the conformations adopted by the reconstituted MPER-TMD peptides, we performed IR experiments and varied systematically this parameter utilizing a complete series of monounsaturated PCs (i.e., diC14:1PC, diC16:1PC, diC18:1PC, diC20:1PC and diC22:1PC)[55].
Infrared spectra were recorded in a Bruker Tensor 27 spectrometer equipped with a mercury-cadmium-telluride detector using a Peltier-based temperature controller (TempCon, BioTools Inc., Wauconda, IL) with calcium fluoride cells (BioCell, BioTools Inc., Wauconda, IL). Lipid vesicles with the peptides reconstituted were lyophilized and subsequently prepared at 3 mg/mL in D2O buffer (PBS). A 25 μL sample aliquot was deposited on a cell that was sealed with a second cell. Reference windows without peptide were prepared similarly. Typically, 1000 scans were collected for each background and sample, and the spectra were obtained with a nominal resolution of 2 cm^−1. Data treatment and band decomposition of the original amide I have been described elsewhere.

Fab 10E8 [3] = assay: AFM single-molecule force spectroscopy of Fab 10E8-peptide unbinding in POPC SPBs; format: binding; details: for MPRF (most probable rupture force), mean: 1:50
Method: SPBs were produced by the vesicle adsorption method and their topography analyzed using a Nanowizard III AFM (JPK Instruments) under contact mode. Briefly, approximately 30 µl of the vesicle suspensions described above were deposited onto freshy cleaved mica disks (area 15 mm^2) preincubated with 30 µl of 150 mM KCl, 10 mM Tris, pH = 7.4 (measurement buffer) and incubated for 30 min at room temperature, leading to the formation of SPBs. The samples were carefully rinsed with measurement buffer before the AFM experiment and always kept under aqueous environment. BL-AC40-C2 Si3N4 cantilevers (Olympus, Japan) with a nominal spring constant of 0.09 N/m were used for bilayer imaging with 0.5 nN of force applied.
For single molecule force spectroscopy, MLCT-BIO probes (Bruker, Santa Barbara, CA USA) were functionalized with Fab 10E8 using well established protocols. To that end, cantilevers were first rinsed with acetone and water, exposed to UV-ozone and coated with 3-Aminopropyldimethylethoxysilane (APDMES). They were then incubated with glutaraldehyde and finally with Fab. Finally, to passivate possible unreacted aldehyde moieties, cantilevers were incubated in 0.1% Bovine Serum Albumin (BSA) for 1 h at room temperature and rinsed in measurement buffer prior to use. Force maps were recorded using a maximum applied force of 0.2 nN, a varying contact time of 0.5, 1, 2 and 5 s and varying retraction speeds of 0.1 µm/s, 2 µm/s and 10 µm/s. Data were analyzed with the data processing software from JPK Instruments (Berlin, Germany).
To determine the MPRF at a given loading rate the frequency histograms of the measured forces were fitted to a Gaussian distribution (Eq. 1) and its maximum calculated.1 y=Amplitude⋅exp−0.5⋅x−Mean/SD^2
MPRF is a function of the loading rate as defined by (Eq. 2):2 MPRF=kβ⋅T/χβlnrf⋅χβ/koff⋅kβ⋅T where kβ is Boltzmann constant, T is the temperature, koff is the natural dissociation rate at zero force and rf is the loading rate.
These parameters can be actually obtained from the slope of the linear fit of the data, and by linearly extrapolating the experimental data to zero external force, respectively.

[4] = GUV permeabilization (soluble KK114 entry); details: POPC GUVs with peptide reconstituted
Method: When required, peptide dissolved in 10% (v/v) HFIP was included in the organic phase at 1:250 peptide-to-lipid molar ratio. […] For GUV permeabilization assays, GUVs were added to a BSA-blocked microscope chamber that already included the unconjugated and soluble KK114 dye, and were incubated for 15 min prior to imaging. Confocal microscopy images were acquired on an inverted confocal fluorescence microscope (Nikon Eclipse TE-2000, Nikon, Nikon Instruments, Tokyo, Japan). […] The band pass filters used were 515/30 and Long Pass 650 nm. The objective used was a 63X oleo immersion with a numerical aperture (NA) of 1.2.

[5] = Breakthrough force of POPC SPBs (FS-AFM); details: peptide-to-lipid 1:50
Description: Permeabilization of single vesicles correlated with effects of the reconstituted peptides on the nanomechanical stability of SPBs analyzed by FS-AFM[57] (Fig. 6b). In this approach, we measured the breakthrough forces of the different SPBs to quantitatively determine the nanomechanical resistance to membrane rupture. By comparing the AFM tip indentations through the different bilayer systems at the same approach speed, we measured the discontinuity in the approach curve which corresponds to the breakthrough force; a parameter widely used to assign the mechanical stability of SPBs[57]. […] This increase was even larger than that observed in an SPB containing 50 mol % cholesterol, which was added as a stiffening-control sample to the analysis. […]
SPBs were produced by the vesicle adsorption method and their topography analyzed using a Nanowizard III AFM (JPK Instruments) under contact mode. […]
Force spectroscopy data for SPB breakthrough measurements were collected using SNL10 Si3N4 cantilever (Bruker, Santa Barbara, CA, USA) with a nominal spring constant of 0.35 N/m, at a speed of 1 µm/s and applying 10 nN of maximum force. Discontinuities in the force versus separation approach curve were determined for each of the indentation curves as reproducible jumps within the extended traces using JPK data processing software.

[6] = Vesicle flotation (incorporation of reconstituted peptides into membranes); format: physicochemical; details: POPC, 1:50 mol:mol, flotation in sucrose gradient, Western blot
Description: Supplementary Figure 4: Incorporation of reconstituted peptides into membranes. (a) Diagram illustrating the Liposome flotation method. Liposome-peptide co mplex es were subjected to ultracentrifugation in a sucrose gradi ent after the reconstitution process. (b) The pres ence of th e peptides in the floated and non- floated fractions o f the gradient and in the original sample (input) as reveal ed b y Western Blot anal ysis aft er Tris -Tricine SDS-PAGE separation. Line plots below […]
liposomes. The peptide-to-lipid ratio was 1:50 (mol:mol).
(1 picture or pasted object on this page, not shown here)

[7] = hydrocarbon thickness DC 22.8 Å
[8] = reconstituted in POPC bilayers, 1:50

| Substance | Fab 10E8 binding vs TMD length and bilayer thickness (in words) (Fab 10E8 [1]) | IR amide-I band area, 1630 cm^−1 (solvated helices) ([2]; DC 25.6 Å) | IR amide-I band area, 1642 cm^−1 (helix-helix interactions/disordered) ([2]; DC 25.6 Å) | IR amide-I band area, 1655 cm^−1 (α-helix) ([2]; DC 25.6 Å) | IR amide-I band area, 1670 cm^−1 (turns) ([2]; DC 25.6 Å) | IR amide-I band area, 1630 cm^−1 (solvated helices) ([2]; DC 29 Å) | IR amide-I band area, 1642 cm^−1 (helix-helix interactions/disordered) ([2]; DC 29 Å) | IR amide-I band area, 1655 cm^−1 (α-helix) ([2]; DC 29 Å) | IR amide-I band area, 1670 cm^−1 (turns) ([2]; DC 29 Å) | IR amide-I band area, 1630 cm^−1 (solvated helices) ([2]; DC 32 Å) | IR amide-I band area, 1642 cm^−1 (helix-helix interactions/disordered) ([2]; DC 32 Å) | IR amide-I band area, 1655 cm^−1 (α-helix) ([2]; DC 32 Å) | IR amide-I band area, 1670 cm^−1 (turns) ([2]; DC 32 Å) | IR amide-I band area, 1630 cm^−1 (solvated helices) ([2]; DC 35 Å) | IR amide-I band area, 1642 cm^−1 (helix-helix interactions/disordered) ([2]; DC 35 Å) | IR amide-I band area, 1655 cm^−1 (α-helix) ([2]; DC 35 Å) | IR amide-I band area, 1670 cm^−1 (turns) ([2]; DC 35 Å) | IR amide-I band area, 1630 cm^−1 (solvated helices) [2, 7] | IR amide-I band area, 1642 cm^−1 (helix-helix interactions/disordered) [2, 7] | IR amide-I band area, 1655 cm^−1 (α-helix) [2, 7] | other results |
| --- | --- | --- | --- | --- | --- | --- | --- | --- | --- | --- | --- | --- | --- | --- | --- | --- | --- | --- | --- | --- | --- |
| C-MPER-TMD700: Env residues 671–700, HXB2 numbering, containing a minimal TMD anchor and Lys-tags added at both ends (NWFNITNWLWYIKLFIMIVGGLVGLRIVFA; also: Lys-tags added at both ends, length not given here; UniProt P04578 671-700, looked up, fragment) | C-MPER-TMDLLA-709 > C-MPER-TMD709 > C-MPER-TMD700 | 8.1% | 31.2% | 52.3% | 7% | 8.4% | 39.3% | 48.1% | 2.6% | 6.4% | 39.8% | 49.8% | 3.9% | 3.1% | 52% | 39.7% | 1% | 5.8% | 35.1% | 51.8% | IR amide-I band area, 1670 cm^−1 (turns) [2, 7]: 7.4% |
| C-MPER-TMD709: Env residues 671–709, HXB2 numbering, which included the nominal Env TMD sequence (Env residues 684–709) (NWFNITNWLWYIKLFIMIVGGLVGLRIVFAVLSIVNRVR; UniProt P04578 671-709, looked up, fragment) | C-MPER-TMDLLA-709 > C-MPER-TMD709 > C-MPER-TMD700 | 18.9% | 31% | 41.6% | 4.9% | 14% | 33.4% | 45.2% | 4.6% | 16% | 34.8% | 43.2% | 3.4% | 15.8% | 40% | 38.5% | 2.9% | 20% | 34.5% | 33.8% | Fab 10E8 binding to GUVs (in words) (Fab 10E8 [1]; POPC GUVs, peptide-to-lipid 1:250, 250 nM Fab): appeared to bind more efficiently to C-MPER-TMD709-containing vesicles than to the N/C-MPER683-containing ones; koff ratio among peptides (Fab 10E8 [3]; N/C-MPER683 vs C-MPER-TMD709, POPC SPBs): ≈ 22; attachment (binding) frequency (in words) (Fab 10E8 [3]; POPC SPBs, vs N/C-MPER683, contact time series, retraction 2 μm s^−1): attachment appeared to occur at higher frequency; MPRF (in words) (Fab 10E8 [3]; POPC SPBs, contact time 0.5 s, loading rate 41 nN s^−1, vs N/C-MPER683): clearly shifted to higher values; t0.5(N/C-MPER)/t0.5(C-MPER-TMD) (Fab 10E8 [3]; interaction time for half maximal probability of binding, POPC SPBs): ≈ 1.4; MPRF (most probable rupture force), mean (Fab 10E8 [3]; ln (loading rate pN/s) 3.62033, POPC SPBs): 33.4766 pN; MPRF (most probable rupture force), mean (Fab 10E8 [3]; ln (loading rate pN/s) 4.62006, POPC SPBs): 53.13 pN; MPRF (most probable rupture force), mean (Fab 10E8 [3]; ln (loading rate pN/s) 6.62009, POPC SPBs): 93.3506 pN; MPRF (most probable rupture force), mean (Fab 10E8 [3]; ln (loading rate pN/s) 7.62012, POPC SPBs): 73.97 pN; MPRF (most probable rupture force), mean (Fab 10E8 [3]; ln (loading rate pN/s) 8.62012, POPC SPBs): 81.12 pN; MPRF (most probable rupture force), mean (Fab 10E8 [3]; ln (loading rate pN/s) 9.62012, POPC SPBs): 90.66 pN; MPRF (most probable rupture force), mean (Fab 10E8 [3]; ln (loading rate pN/s) 10.6201, POPC SPBs): 135 pN; permeabilization (in words) [4]: viewed as empty spheres; also recorded: essentially impermeable; breakthrough force (in words) [5]: increased the values of the forces at which rupture was observed; incorporation into membranes (in words) [6]: total incorporation; IR amide-I band area, 1670 cm^−1 (turns) [2, 7]: 6.4%; IR amide-I absorption maximum [2, 8]: around 1650 cm^−1; IR amide-I band component [2, 8]: 1642 cm⁻¹ |
